T1: human MSLN-R1-his protein (human, UniProt Q13421 296-390)
T1 construct: Self-made in HEK293E cells; also called human MSLN-R1 protein; hMSLN-R1-his; not shown: His tag
T1 chain: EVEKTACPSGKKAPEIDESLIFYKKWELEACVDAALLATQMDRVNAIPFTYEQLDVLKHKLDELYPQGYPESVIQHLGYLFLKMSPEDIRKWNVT

B1: S009-F3.51.8 (antibody, human IgG1, kappa, V domains shown)
VH: QVQLQQSGAELVRPGASVTLSCKASGYTFTDYEMHWVKQTPVHGLEWIGGFDPETGGTAHNQKFKGKAILTADKSSSTAYMELRSLTSEDSAVYYCSNYGSIWGDCWGQGTSVTVSS
VL: not shown
notes: Human-murine chimeric antibody, human IgG1/kappa constant regions
B2: S009-F3.45.21 (antibody, human IgG1, kappa, V domains shown)
VH: DVQLQESGPGLVKPSQSLSLTCSVTGDSITSGYYWNWIRQFPGNKLEWMGFIRFDGTNNYNPSLKNRISITRDTSKNQFFLKLNSVTTEDTATYYCAREGSYAPAWFAYWGQGTLVTVSA
VL: QIVLTQSPAIMSASPGEKVTMTCSASSSLSYMYWYQQKPGSSPRLLIYDTSNLASGVPVRFSGSGSGTSYSLTISRMEAEDAATYYCQQWSSYPPTFGGGTKLEIKR
notes: as for B1
B3: S009-F3.23.1 (antibody, human IgG1, kappa, V domains shown)
VH: QVQLQQSGADLVRPGASVTLSCKASGYTFTDYEMHWVKQTPVHGLEWIGAIDPETGDTVYNQNFKGKAILTADKSSSTAYMELRSLTSEDSAVYYCTRYGYDWGWGQGTTLTVSS
VL: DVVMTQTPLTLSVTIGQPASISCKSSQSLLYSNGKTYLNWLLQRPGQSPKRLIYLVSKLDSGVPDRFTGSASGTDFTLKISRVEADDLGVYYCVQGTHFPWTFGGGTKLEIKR
notes: as for B1
B4: S009-F3.51.8 (antibody, human IgG1, kappa, V domains shown)
VH: B1 VH
VL: not shown
notes: Human-murine chimeric antibody on human IgG1/kappa constant regions

biological target: T2, human MSLN-R3-his protein (human, UniProt Q13421 487-598); assay: ELISA, coated antigen; antibody 1 nM
T2 construct: also called human MSLN-R3 protein; hMSLN-R3-his; not shown: His tag
T2 sequence (Q13421 495-606): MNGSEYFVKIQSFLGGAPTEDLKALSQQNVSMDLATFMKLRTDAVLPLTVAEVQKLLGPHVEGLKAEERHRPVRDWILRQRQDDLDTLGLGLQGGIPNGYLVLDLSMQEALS

Binder	OD450
B1	1.83 OD450
B2	0.05 OD450
B3	1.77 OD450

biological target: T3, human MSLN-R3-3 polypeptide (human); assay: ELISA, coated antigen; antibody 1 nM
T3 construct: also called human MSLN-R3-3 protein; hMSLN-R3-3
Experimental: (§1) The plate was sealed with a plastic film and incubated at 4° C. overnight. The next day, the plate was washed twice with PBST, and a blocking buffer [PBS+2% (w/w) BSA] was added for blocking at room temperature for 2 h. The blocking buffer was discarded, and a chimeric antibody or negative control antibody serially diluted from 100 nM was added at 50 μL/well. After incubation at 37° C. for 2 h, the plate was washed 3 times with PBST. […] After incubation at 37° C. for 2 h, the plate was washed 5 times with PBST. A TMB substrate was added at 50 μL/well for incubation at room temperature for 5-10 min, and then a stop solution (1.0 N HCl) was added at 50 μL/well.

Binder	OD450
B1	1.8 OD450
B2	0.07 OD450
B3	1.87 OD450

biological target: T2, human MSLN-R3-his protein; assay: ELISA, coated antigen; antibody 10 nM
Experimental: as §1

Binder	OD450
B1	1.91 OD450
B2	0.07 OD450
B3	1.95 OD450

biological target: T3, human MSLN-R3-3 polypeptide; assay: ELISA, coated antigen; antibody 10 nM
Experimental: as §1

Binder	OD450
B1	1.92 OD450
B2	0.08 OD450
B3	2.01 OD450

biological target: T4, human MSLN-FL-his protein (human, UniProt Q13421 296-580); assay: ELISA on coated antigen, antibody 1 nM
T4 construct: Self-made in HEK293E cells; also called human MSLN full-length protein; hMSLN-FL-his; not shown: His tag

Binder	OD450
B4	1.93 OD450

Biological target: T1, human MSLN-R1-his protein
Assay: ELISA on coated antigen, antibody 1 nM
Experimental: as §1

Binder	OD450
B4	0.06 OD450

biological target: T2, human MSLN-R3-his protein; assay: ELISA, coated antigen; antibody 0.1 nM
Experimental: as §1

Binder	OD450
B1	1.55 OD450
B2	0.06 OD450
B3	1.51 OD450

biological target: T2, human MSLN-R3-his protein; assay: ELISA, coated antigen; antibody 100 nM
Experimental: as §1

Binder	OD450
B1	2.18 OD450
B2	0.09 OD450
B3	2.31 OD450

biological target: T3, human MSLN-R3-3 polypeptide; assay: ELISA, coated antigen; antibody 0.1 nM
Experimental: as §1

Binder	OD450
B1	1.42 OD450
B2	0.08 OD450
B3	1.54 OD450

biological target: T3, human MSLN-R3-3 polypeptide; assay: ELISA, coated antigen; antibody 100 nM
Experimental: as §1

Binder	OD450
B1	2.04 OD450
B2	0.11 OD450
B3	2.33 OD450

biological target: T4, human MSLN-FL-his protein; assay: ELISA on coated antigen, antibody 10 nM
Experimental: as §1

Binder	OD450
B4	2.06 OD450

Biological target: T1, human MSLN-R1-his protein
Assay: ELISA on coated antigen, antibody 10 nM
Experimental: as §1

Binder	OD450
B4	0.06 OD450

biological target: T2, human MSLN-R3-his protein; assay: ELISA, coated antigen; antibody 0.01 nM
Experimental: as §1

Binder	OD450
B1	0.41 OD450
B2	0.07 OD450
B3	0.48 OD450

biological target: T3, human MSLN-R3-3 polypeptide; assay: ELISA, coated antigen; antibody 0.01 nM
Experimental: as §1

Binder	OD450
B1	0.51 OD450
B2	0.07 OD450
B3	0.57 OD450

biological target: T4, human MSLN-FL-his protein; assay: ELISA on coated antigen, antibody 0.1 nM
Experimental: as §1

Binder	OD450
B4	1.68 OD450

biological target: T4, human MSLN-FL-his protein; assay: ELISA on coated antigen, antibody 100 nM
Experimental: as §1

Binder	OD450
B4	2.58 OD450

Biological target: T1, human MSLN-R1-his protein
Assay: ELISA on coated antigen, antibody 0.1 nM
Experimental: as §1

Binder	OD450
B4	0.06 OD450

Biological target: T1, human MSLN-R1-his protein
Assay: ELISA on coated antigen, antibody 100 nM
Experimental: as §1

Binder	OD450
B4	0.07 OD450

biological target: T2, human MSLN-R3-his protein; assay: ELISA, coated antigen; antibody 0.001 nM
Experimental: as §1

Binder	OD450
B1	0.12 OD450
B2	0.24 OD450
B3	0.12 OD450

biological target: T3, human MSLN-R3-3 polypeptide; assay: ELISA, coated antigen; antibody 0.001 nM
Experimental: as §1

Binder	OD450
B1	0.13 OD450
B2	0.25 OD450
B3	0.18 OD450

biological target: T4, human MSLN-FL-his protein; assay: ELISA on coated antigen, antibody 0.01 nM
Experimental: as §1

Binder	OD450
B4	0.63 OD450

Biological target: T1, human MSLN-R1-his protein
Assay: ELISA on coated antigen, antibody 0.01 nM
Experimental: as §1

Binder	OD450
B4	0.07 OD450

biological target: T2, human MSLN-R3-his protein; assay: ELISA, coated antigen; antibody 0.0001 nM
Experimental: as §1

Binder	OD450
B1	0.09 OD450
B2	0.09 OD450
B3	0.08 OD450

biological target: T3, human MSLN-R3-3 polypeptide; assay: ELISA, coated antigen; antibody 0.0001 nM
Experimental: as §1

Binder	OD450
B1	0.09 OD450
B2	0.1 OD450
B3	0.09 OD450

biological target: T4, human MSLN-FL-his protein; assay: ELISA on coated antigen, antibody 0.001 nM
Experimental: as §1

Binder	OD450
B4	0.14 OD450

Biological target: T1, human MSLN-R1-his protein
Assay: ELISA on coated antigen, antibody 0.001 nM
Experimental: as §1

Binder	OD450
B4	0.07 OD450

biological target: T4, human MSLN-FL-his protein; assay: ELISA on coated antigen, antibody 0.0001 nM
Experimental: as §1

Binder	OD450
B4	0.07 OD450

Biological target: T1, human MSLN-R1-his protein
Assay: ELISA on coated antigen, antibody 0.0001 nM
Experimental: as §1

Binder	OD450
B4	0.07 OD450

biological target: T4, human MSLN-FL-his protein; assay: ELISA on coated antigen, no antibody (column none)
Experimental: as §1

Binder	OD450
B4	0.08 OD450

Biological target: T1, human MSLN-R1-his protein
Assay: ELISA on coated antigen, no antibody (column none)
Experimental: as §1

Binder	OD450
B4	0.07 OD450

biological target: T2, human MSLN-R3-his protein; assay: ELISA, coated antigen; no antibody (blank, column 'none')
Experimental: as §1

Binder	OD450
B1	0.09 OD450
B2	0.09 OD450
B3	0.1 OD450

biological target: T3, human MSLN-R3-3 polypeptide; assay: as above
Experimental: as §1

Binder	OD450
B1	0.07 OD450
B2	0.07 OD450
B3	0.09 OD450

Reference: patent publication US20250250357A1 (NANJING ZAIMING PHARMACEUTICAL, published 2025)
